Data as given in patent publication US20190367613A1 (JOUNCE THERAPEUTICS, published 2019).

T1: Human ICOS (human, UniProt Q9Y6W8 21-199)
T1 sequence: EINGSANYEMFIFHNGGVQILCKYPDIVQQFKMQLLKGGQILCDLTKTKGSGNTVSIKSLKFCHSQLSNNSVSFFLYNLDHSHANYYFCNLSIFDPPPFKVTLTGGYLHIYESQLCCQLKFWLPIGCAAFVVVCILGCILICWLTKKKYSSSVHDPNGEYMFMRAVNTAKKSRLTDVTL


How the values were obtained:
[1] = biological target: T1, Human ICOS; test: cell-based or functional assay
[2] = biological target: T1, Human ICOS; test: intracellular flow cytometry on permeabilized human PBMCs, streptavidin PE detection

Binder | intracellular IFNγ production in CD4+ T cells (flow cytometry, after tetanus toxoid stimulation) [1] | intracellular TNFα production in CD4+ T cells (flow cytometry, after tetanus toxoid stimulation) [1] | binding result [2]
JTX-2011 (antibody, V domains shown) VH: EVQLVESGGGLVQPGGSLRLSCAASGFTFSDYWMDWVRQAPGKGLVWVSNIDEDGSITEYSPFVKGRFTISRDNAKNTLYLQMNSLRAEDTAVYYCTRWGRFGFDSWGQGTLVTVSS VL: DIVMTQSPDSLAVSLGERATINCKSSQSLLSGSFNYLTWYQQKPGQPPKLLIFYASTRHTGVPDRFSGSGSGTDFTLTISSLQAEDVAVYYCHHHYNAPPTFGPGTKVDIKR | 4 fold | 4 fold | 
M13 anti-ICOS detection antibody (antibody, V domains shown, also called 2M13; biotinylated M13 anti-ICOS detection antibody) VH: EVQLQQSGAELVRPGAVVKLSCKASGFDIKDYYMHWVQQRPEQGLEWIGWIDPENGNAVYDPQFQGKASITADTSSNTAYLQLSSLTSEDTAVYYCASDYYGSKGYLDVWGAGTTVTVSS VL: QIVLTQSPTIMSASPGEKVTITCSASSSVSYMHWFQQKPGTSPKLWIYSTSNLASGVPARFGGSRSGTSYSLTISRMEAEDAATYYCQQRSSYPFTFGSGTKLEIK |  |  | binds
